{
  "source": "patent US20230265151A1",
  "about": "“GIP/GLP1 CO-AGONIST COMPOUNDS” (priority 2020, published 2023)",
  "binders": {"B1": {"name": "Y-Aib-EGT-αMeF(2F)-TSD-Ac5c-SI-αMeL-LD-Orn-K((2-[2-(2-Amino-ethoxy)-ethoxy]-acetyl)2-(γ-Glu)-CO-(CH2)12-CO2H)AQ-Aib-E-αMeF-I-(D-Glu)-αMeY-LIEGGK((2-[2-(2-Amino- … (peptide)", "peptide": "YXEGTXTSDXSIXLDXKAQXEXIXXLIEGGKSSGAPPPS", "modifications": "Aib2, αMeF(2F)6, Ac5c10, αMeL13, Orn16, Aib20, αMeF22, D-Glu24, αMeY25; acylated K17, K31 (groups as in name); C-terminal amide"}, "B2": {"name": "Y-Aib-EGT-αMeF(2F)-TSD-4Pal-SI-αMeL-LD-Orn-K((2-[2-(2-Amino-ethoxy)-ethoxy]-acetyl)2-(γ-Glu)-CO-(CH2)12-CO2H)AQ-Aib-E-1Nal-I-(D-Glu)-αMeY-LIEGGK((2-[2-(2-Amino- … (peptide)", "peptide": "B1 peptide", "modifications": "Aib2, αMeF(2F)6, 4Pal10, αMeL13, Orn16, Aib20, 1Nal22, D-Glu24, αMeY25; acylated K17, K31 (groups as in name); C-terminal amide"}, "B3": {"name": "Y-Aib-EGT-αMeF(2F)-TSD-4Pal-SI-αMeL-LD-Orn-K((2-[2-(2-Amino-ethoxy)-ethoxy]-acetyl)2-(γ-Glu)-CO-(CH2)12-CO2H)AQ-Aib-EFI-(D-Glu)-αMeY-LIEGGK((2-[2-(2-Amino-ethox … (peptide)", "peptide": "B1 peptide with X22F, S39X", "modifications": "Aib2, αMeF(2F)6, 4Pal10, αMeL13, Orn16, Aib20, D-Glu24, αMeY25, Orn39; acylated K17, K31 (groups as in name); C-terminal amide"}, "B4": {"name": "Y-Aib-EGT-αMeF(2F)-TSD-αMeF(2F)-SI-αMeL-LD-Orn-K((2-[2-(2-Amino-ethoxy)-ethoxy]-acetyl)2-(γ-Glu)-CO-(CH2)12-CO2H)AQ-Aib-EFI-(D-Glu)-αMeY-LIEGGK((2-[2-(2-Amino-e … (peptide)", "peptide": "B1 peptide with X22F", "modifications": "Aib2, αMeF(2F)6, αMeF(2F)10, αMeL13, Orn16, Aib20, D-Glu24, αMeY25; acylated K17, K31 (groups as in name); C-terminal amide"}, "B5": {"name": "Y-Aib-EGT-αMeF(2F)-TSDVSI-αMeL-LD-Orn-K((2-[2-(2-Amino-ethoxy)-ethoxy]-acetyl)2-(γ-Glu)-CO-(CH2)12-CO2H)AQ-Aib-EFI-(D-Glu)-αMeY-LIEGGK((2-[2-(2-Amino-ethoxy)-et … (peptide)", "peptide": "B1 peptide with X10V, X22F", "modifications": "Aib2, αMeF(2F)6, αMeL13, Orn16, Aib20, D-Glu24, αMeY25; acylated K17, K31 (groups as in name); C-terminal amide"}, "B6": {"name": "Y-Aib-EGT-αMeF(2F)-TSD-4Pal-SI-αMeL-LD-Orn-K((2-[2-(2-Amino-ethoxy)-ethoxy]-acetyl)2-(γ-Glu)-CO-(CH2)12-CO2H)GQ-Aib-EFI-(D-Glu)-αMeY-LIEGGK((2-[2-(2-Amino-ethox … (peptide)", "peptide": "B1 peptide with A18G, X22F", "modifications": "Aib2, αMeF(2F)6, 4Pal10, αMeL13, Orn16, Aib20, D-Glu24, αMeY25; acylated K17, K31 (groups as in name); C-terminal amide"}, "B7": {"name": "Y-Aib-EGT-αMeF(2F)-TSD-Ac4c-SI-αMeL-LD-Orn-K((2-[2-(2-Amino-ethoxy)-ethoxy]-acetyl)2-(γ-Glu)-CO-(CH2)12-CO2H)AQ-Aib-EFI-(D-Glu)-αMeY-LIEGGK((2-[2-(2-Amino-ethox … (peptide)", "peptide": "B1 peptide with X22F", "modifications": "Aib2, αMeF(2F)6, Ac4c10, αMeL13, Orn16, Aib20, D-Glu24, αMeY25; acylated K17, K31 (groups as in name); C-terminal amide"}, "B8": {"name": "Y-Aib-EGT-αMeF(2F)-TSD-ChG-SI-αMeL-LD-Orn-K((2-[2-(2-Amino-ethoxy)-ethoxy]-acetyl)2-(γ-Glu)-CO-(CH2)12-CO2H)AQ-Aib-EFI-(D-Glu)-αMeY-LIEGGK((2-[2-(2-Amino-ethoxy … (peptide)", "peptide": "B1 peptide with X22F", "modifications": "Aib2, αMeF(2F)6, ChG10, αMeL13, Orn16, Aib20, D-Glu24, αMeY25; acylated K17, K31 (groups as in name); C-terminal amide"}, "B9": {"name": "Y-Aib-EGT-αMeF(2F)-TSD-4Pal-SI-αMeL-LD-Orn-K((2-[2-(2-Amino-ethoxy)-ethoxy]-acetyl)2-(γ-Glu)-CO-(CH2)12-CO2H)AQ-Aib-E-(2FPhe)-I-(D-Glu)-αMeY-LIEGGK((2-[2-(2-Ami … (peptide)", "peptide": "B1 peptide", "modifications": "Aib2, αMeF(2F)6, 4Pal10, αMeL13, Orn16, Aib20, 2FPhe22, D-Glu24, αMeY25; acylated K17, K31 (groups as in name); C-terminal amide"}, "B10": {"name": "Y-Aib-EGT-αMeF(2F)-TSD-4Pal-SI-αMeL-LD-Orn-K((2-[2-(2-Amino-ethoxy)-ethoxy]-acetyl)2-(γ-Glu)-CO-(CH2)12-CO2H)AQ-Aib-E-2Nal-I-(D-Glu)-αMeY-LIEGGK((2-[2-(2-Amino- … (peptide)", "peptide": "B1 peptide", "modifications": "Aib2, αMeF(2F)6, 4Pal10, αMeL13, Orn16, Aib20, 2Nal22, D-Glu24, αMeY25; acylated K17, K31 (groups as in name); C-terminal amide"}, "B11": {"name": "Y-Aib-EGT-αMeF(2F)-TSD-4Pal-Aib-I-αMeL-LD-Orn-K((2-[2-(2-Amino-ethoxy)-ethoxy]-acetyl)2-(γ-Glu)-CO-(CH2)12-CO2H)AQ-Aib-EFI-(D-Glu)-αMeY-LIEGGK((2-[2-(2-Amino-et … (peptide)", "peptide": "B1 peptide with S11X, X22F", "modifications": "Aib2, αMeF(2F)6, 4Pal10, Aib11, αMeL13, Orn16, Aib20, D-Glu24, αMeY25; acylated K17, K31 (groups as in name); C-terminal amide"}, "B12": {"name": "Y-Aib-EGT-αMeF(2F)-TSD-4Pal-SI-αMeL-LD-Orn-K((2-[2-(2-Amino-ethoxy)-ethoxy]-acetyl)2-(γ-Glu)-CO-(CH2)i2-CO2H)AQ-Aib-4Pal-FI-(D-Glu)-αMeY-LIEGGK((2-[2-(2-Amino-e … (peptide)", "peptide": "B1 peptide with E21X, X22F", "modifications": "Aib2, αMeF(2F)6, 4Pal10, αMeL13, Orn16, Aib20, 4Pal21, D-Glu24, αMeY25; acylated K17, K31 (groups as in name); C-terminal amide"}, "B13": {"name": "Y-Aib-EGT-αMeF(2F)-TSD-4Pal-SI-αMeL-LD-Orn-IAQ-Aib-EFIK((2-[2-(2-Amino-ethoxy)-ethoxy]-acetyl)2-CO-(CH2)12-CO2H)-αMeY-LIEGGPSSGAPPP … (peptide)", "peptide": "YXEGTXTSDXSIXLDXIAQXEFIKXLIEGGPSSGAPPPSK", "modifications": "Aib2, αMeF(2F)6, 4Pal10, αMeL13, Orn16, Aib20, αMeY25; acylated K24, K40 (groups as in name); C-terminal amide"}},
  "note": "Where a chain is given by its changes, count along the chain named.",
  "data": [
    {"molecular_target": "human glucagon receptor (human, UniProt P47871 26-477)", "test": "cell-based or functional assay", "units": {"cAMP EC50 (1.0% HSA)": "nM"}, "values": [
      {"binder": "B1", "cAMP EC50 (1.0% HSA)": "> 9950"},
      {"binder": "B2", "cAMP EC50 (1.0% HSA)": "> 9950"},
      {"binder": "B3", "cAMP EC50 (1.0% HSA)": "> 9950"},
      {"binder": "B4", "cAMP EC50 (1.0% HSA)": "> 9950"},
      {"binder": "B5", "cAMP EC50 (1.0% HSA)": "> 9950"},
      {"binder": "B6", "cAMP EC50 (1.0% HSA)": "> 9950"},
      {"binder": "B7", "cAMP EC50 (1.0% HSA)": "> 9950"},
      {"binder": "B8", "cAMP EC50 (1.0% HSA)": "> 9950"},
      {"binder": "B9", "cAMP EC50 (1.0% HSA)": "> 9950"},
      {"binder": "B10", "cAMP EC50 (1.0% HSA)": "> 9950"},
      {"binder": "B11", "cAMP EC50 (1.0% HSA)": "> 9950"},
      {"binder": "B12", "cAMP EC50 (1.0% HSA)": "> 9950"},
      {"binder": "B13", "cAMP EC50 (1.0% HSA)": "> 9950"}
    ]},
    {"molecular_target": "human GLP-1 receptor (human, UniProt P43220 24-463)", "test": "cell-based or functional assay", "units": {"cAMP EC50 (1.0% HSA)": "nM", "cAMP Emax (1.0% HSA)": "%"}, "values": [
      {"binder": "B1", "cAMP EC50 (1.0% HSA)": 145, "cAMP Emax (1.0% HSA)": 113},
      {"binder": "B2", "cAMP EC50 (1.0% HSA)": 27, "cAMP Emax (1.0% HSA)": 93},
      {"binder": "B3", "cAMP EC50 (1.0% HSA)": 70.5, "cAMP Emax (1.0% HSA)": 103},
      {"binder": "B4", "cAMP EC50 (1.0% HSA)": 80},
      {"binder": "B5", "cAMP EC50 (1.0% HSA)": 23.4, "cAMP Emax (1.0% HSA)": 96.6},
      {"binder": "B6", "cAMP EC50 (1.0% HSA)": 367},
      {"binder": "B7", "cAMP EC50 (1.0% HSA)": 8.84, "cAMP Emax (1.0% HSA)": 84},
      {"binder": "B8", "cAMP EC50 (1.0% HSA)": 227},
      {"binder": "B9", "cAMP EC50 (1.0% HSA)": 47.6, "cAMP Emax (1.0% HSA)": 98},
      {"binder": "B10", "cAMP EC50 (1.0% HSA)": 20, "cAMP Emax (1.0% HSA)": 81.1},
      {"binder": "B11", "cAMP EC50 (1.0% HSA)": 27.7, "cAMP Emax (1.0% HSA)": 108},
      {"binder": "B12", "cAMP EC50 (1.0% HSA)": 36},
      {"binder": "B13", "cAMP EC50 (1.0% HSA)": 21.2, "cAMP Emax (1.0% HSA)": 109}
    ]},
    {"molecular_target": "T1, human GIP receptor (human, UniProt P48546 22-466)", "T1 sequence (looked up)": "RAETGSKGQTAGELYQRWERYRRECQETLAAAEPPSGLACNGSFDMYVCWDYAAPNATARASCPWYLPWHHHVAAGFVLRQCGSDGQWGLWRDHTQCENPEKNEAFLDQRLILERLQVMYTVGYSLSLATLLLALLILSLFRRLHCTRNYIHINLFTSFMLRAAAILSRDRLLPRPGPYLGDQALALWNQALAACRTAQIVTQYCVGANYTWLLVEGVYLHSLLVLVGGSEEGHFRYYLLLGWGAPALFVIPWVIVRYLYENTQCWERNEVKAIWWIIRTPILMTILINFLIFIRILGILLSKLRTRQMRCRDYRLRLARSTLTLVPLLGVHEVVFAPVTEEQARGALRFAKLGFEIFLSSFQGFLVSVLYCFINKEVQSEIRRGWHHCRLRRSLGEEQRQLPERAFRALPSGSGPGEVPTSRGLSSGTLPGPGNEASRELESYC", "test": "cell-based or functional assay", "units": {"cAMP EC50 (1.0% HSA)": "nM", "cAMP Emax (1.0% HSA)": "%"}, "values": [
      {"binder": "B1", "cAMP EC50 (1.0% HSA)": 2.81},
      {"binder": "B2", "cAMP EC50 (1.0% HSA)": 0.787, "cAMP Emax (1.0% HSA)": 90.6},
      {"binder": "B3", "cAMP EC50 (1.0% HSA)": 1.34, "cAMP Emax (1.0% HSA)": 93},
      {"binder": "B4", "cAMP EC50 (1.0% HSA)": 4.84},
      {"binder": "B5", "cAMP EC50 (1.0% HSA)": 3.81, "cAMP Emax (1.0% HSA)": 104},
      {"binder": "B6", "cAMP EC50 (1.0% HSA)": 2.36, "cAMP Emax (1.0% HSA)": 96.9},
      {"binder": "B7", "cAMP EC50 (1.0% HSA)": 4.68},
      {"binder": "B8", "cAMP EC50 (1.0% HSA)": 5.49},
      {"binder": "B9", "cAMP EC50 (1.0% HSA)": 0.771},
      {"binder": "B10", "cAMP EC50 (1.0% HSA)": 2.49},
      {"binder": "B11", "cAMP EC50 (1.0% HSA)": 1.49, "cAMP Emax (1.0% HSA)": 94.2},
      {"binder": "B12", "cAMP EC50 (1.0% HSA)": 0.718, "cAMP Emax (1.0% HSA)": 89.6},
      {"binder": "B13", "cAMP EC50 (1.0% HSA)": 1.24, "cAMP Emax (1.0% HSA)": 80.7}
    ]}
  ]
}
